Data taken from patent US20190330320A1.
pIC50: −log10 of the molar value.

Experiments:
[1] = molecular target: pathological hyperphosphorylated tau from human Alzheimer's disease brain (AD-P3 antigens) (human) (UniProt P10636); experiment: fluid phase inhibition of Ptau antigen capture in C10-2 coated plate
[2] = molecular target: pathological hyperphosphorylated tau from human Alzheimer's disease brain (AD-P3 antigens) (human) (UniProt P10636); experiment: fluid phase inhibition of AD-P3 tau capture on MSD plates coated with mouse C10-2; two-site fit, high affinity part
[3] = molecular target: pathological hyperphosphorylated tau from human Alzheimer's disease brain (AD-P3 antigens) (human) (UniProt P10636); experiment: fluid phase inhibition of AD-P3 tau capture on MSD plates coated with mouse C10-2; two-site fit
[4] = molecular target: pathological hyperphosphorylated tau from human Alzheimer's disease brain (AD-P3 antigens) (human) (UniProt P10636); experiment: fluid phase inhibition of AD-P3 tau capture on MSD plates coated with mouse C10-2; two-site fit, low affinity part
[5] = molecular target: hyperphosphorylated human tau P301L (4R0N) from rTg4510 mouse brain (64 and 70 kDa species) (human) (UniProt P10636); experiment: binding to P301L human mutant tau isolated from 10 month old Tg4510 mice
Chain of hyperphosphorylated human tau P301L (4R0N) from rTg4510 mouse brain (64 and 70 kDa species) (human) (P10636 other isoform, or with tags, fused parts or gaps P301L P301L): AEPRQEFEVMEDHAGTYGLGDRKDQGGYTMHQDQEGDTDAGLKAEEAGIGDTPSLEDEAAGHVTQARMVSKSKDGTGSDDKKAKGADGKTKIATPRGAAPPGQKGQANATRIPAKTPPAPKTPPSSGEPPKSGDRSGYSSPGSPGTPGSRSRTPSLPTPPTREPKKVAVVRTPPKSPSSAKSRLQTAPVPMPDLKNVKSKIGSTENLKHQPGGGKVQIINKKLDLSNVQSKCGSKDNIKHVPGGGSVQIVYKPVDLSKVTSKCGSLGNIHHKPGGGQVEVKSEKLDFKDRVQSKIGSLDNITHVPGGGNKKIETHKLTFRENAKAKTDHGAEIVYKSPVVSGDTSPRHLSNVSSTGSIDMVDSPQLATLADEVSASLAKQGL

Chain of pathological hyperphosphorylated tau from human Alzheimer's disease brain (AD-P3 antigens) (human) (P10636 other isoform, or with tags, fused parts or gaps limits assumed): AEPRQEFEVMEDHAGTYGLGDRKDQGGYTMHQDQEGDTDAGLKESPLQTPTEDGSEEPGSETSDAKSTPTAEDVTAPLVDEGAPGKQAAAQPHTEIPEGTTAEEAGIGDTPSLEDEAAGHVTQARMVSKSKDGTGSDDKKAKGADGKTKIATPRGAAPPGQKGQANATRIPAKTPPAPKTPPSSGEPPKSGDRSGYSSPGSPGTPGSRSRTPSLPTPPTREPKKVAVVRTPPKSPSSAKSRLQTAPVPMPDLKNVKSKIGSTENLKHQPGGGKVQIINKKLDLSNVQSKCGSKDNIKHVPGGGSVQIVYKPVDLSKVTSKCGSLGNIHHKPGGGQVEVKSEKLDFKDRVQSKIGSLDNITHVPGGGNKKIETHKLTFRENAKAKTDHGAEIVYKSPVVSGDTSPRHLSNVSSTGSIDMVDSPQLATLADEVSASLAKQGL
Chain of IPN002 (antibody) (VH): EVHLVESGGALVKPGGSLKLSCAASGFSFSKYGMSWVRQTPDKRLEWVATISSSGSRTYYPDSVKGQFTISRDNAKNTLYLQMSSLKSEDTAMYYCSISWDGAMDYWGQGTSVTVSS
Chain of IPN002 (antibody) (VL): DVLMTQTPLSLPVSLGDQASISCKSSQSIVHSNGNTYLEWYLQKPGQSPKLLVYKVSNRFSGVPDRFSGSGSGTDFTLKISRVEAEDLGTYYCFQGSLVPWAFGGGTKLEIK
Chain of HJ8.5 (antibody) (VH): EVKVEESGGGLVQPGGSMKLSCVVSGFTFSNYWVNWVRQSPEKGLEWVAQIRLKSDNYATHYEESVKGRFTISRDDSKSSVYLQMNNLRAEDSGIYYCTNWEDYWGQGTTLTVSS
Chain of HJ8.5 (antibody) (VL): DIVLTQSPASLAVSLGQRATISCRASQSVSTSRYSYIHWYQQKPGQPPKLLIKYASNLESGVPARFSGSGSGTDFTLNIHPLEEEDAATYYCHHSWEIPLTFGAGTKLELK

With PHF-13 (antibody) the pIC50 [1] was 6.00 to 6.30.

In the case of Antibody C10-2 (humanized C10-2), the pIC50 [2] was 7.85, the share of the high affinity binding in the total binding [3] was < 25% and the pIC50 [4] was 6.20.

With HJ8.5 (antibody) the TG/wt (binding to P301L tau from Tg4510 mice over wild type) [5] was 51.

IPN002 (antibody) was tested, and the TG/wt (binding to P301L tau from Tg4510 mice over wild type) [5] was 37.
